Experimental data taken from PMC6677920 (2019).

Target: recombinant bovine respiratory syncytial virus fusion (F) protein, purified (bovine respiratory syncytial virus, UniProt P22167 26-513)
Assay: SPR

B1: hybrid Fab B4* (B4 HC/B13 LC) (Fab, V domains shown)
VH: QVQLQESGPSLVKPSQTLSLTCTVSGFSLSSYSVSWVRQAPGKTLEWLGDASNGGIIYYNPALKSRLGITRDNSKSQVSLSLNTITPEDTATYYCAKCSVGDSGSYACTGRKGEYVDAWGQGLLVTVSS
VL: QAVLTQPPSVSGSLGQRVSITCSGSSDNIGIFAVGWYQQVPGSGLRTIIYGNTKRPSGVPDRFSGSKSGNTATLTINSLQAEDEADYFCVCGESKSATPVFGGGTTLTVL
- Kd: ~12 µM
